Experiments:
[1] = tested on: HeLa Kyoto; assay: solubility change mitosis vs G1/S (difference of NP-40 vs SDS log2 ratios) (log2 ratio difference); higher = more soluble in mitosis
[2] = tested on: HeLa Kyoto; assay: solubility in G1/S (NP-40 vs SDS abundance) (log2 ratio); higher = more soluble; conditions: cell cycle stage: G1/S
[3] = tested on: HeLa Kyoto; assay: melting temperature (median over replicates), in situ; higher = more thermally stable
[4] = tested on: HeLa Kyoto; assay: thermal stability score vs G1/S (z-score of summed log2 fold changes over temperatures); higher = more thermally stable than in G1/S
[5] = cell cycle stage: early G1 (4.5 h after nocodazole release)
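For melting temperature (median over replicates), in situ in this document: HeLa Kyoto cells synchronized by double thymidine or nocodazole block, proteins quantified by TMT10plex mass spectrometry, three independent biological replicates.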
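For solubility change mitosis vs G1/S (difference of NP-40 vs SDS log2 ratios) in this document: synchronized HeLa Kyoto cells (double thymidine block for G1/S, nocodazole release for mitosis), protein amounts in NP-40 versus SDS lysates quantified by mass spectrometry, three biological replicates.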
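For solubility in G1/S (NP-40 vs SDS abundance) in this document: HeLa Kyoto cells arrested at G1/S by double thymidine block, proteins quantified by TMT10plex mass spectrometry in mild NP-40 versus SDS extracts, three biological replicates.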
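For thermal stability score vs G1/S (z-score of summed log2 fold changes over temperatures) in this document: synchronized HeLa Kyoto cells, proteins quantified by TMT10plex mass spectrometry, three biological replicates, mitosis taken 0.5 h after nocodazole release, G1/S directly after double thymidine block.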

Question: With “MEPRAVAEAVETGEEDVIMEALRSYNQEHSQSFTFDDAQQEDRKRLAELLVSVLEQGLPPSHRVIWLQSVRILSRDRNCLDPFTSRQSLQALACYADISVSEGSVPESADMDVVLESLKCLCNLVLSSPVAQMLAAEARLVVKLTERVGLYRERSFPHDVQFFDLRLLFLLTALRTDVRQQLFQELKGVRLLTDTLELTLGVTPEGNPPPTLLPSQETERAMEILKVLFNITLDSIKGEVDEEDAALYRHLGTLLRHCVMIATAGDRTEEFHGHAVNLLGNLPLKCLDVLLTLEPHGDSTEFMGVNMDVIRALLIFLEKRLHKTHRLKESVAPVLSVLTECARMHRPARKFLKAQVLPPLRDVRTRPEVGEMLRNKLVRLMTHLDTDVKRVAAEFLFVLCSESVPRFIKYTGYGNAAGLLAARGLMAGGRPEGQYSEDEDTDTDEYKEAKASINPVTGRVEEKPPNPMEGMTEEQKEHEAMKLVTMFDKLSRNRVIQPMGMSPRGHLTSLQDAMCETMEQQLSSDPDSDPD [RIC8A]” as the sequence, how does the “solubility change mitosis (log2)” value [1] read?
Answer: 0.342

Question: What about the “solubility in G1/S (log2)” value [2] of the same sequence?
Answer: -0.322

Question: What about the melting temperature ([3]; cell cycle stage: G1/S) of the same sequence?
Answer: 51.6 °C

Question: What about the melting temperature ([3]; cell cycle stage: mitosis) of the same sequence?
Answer: 49.6 °C

Question: And the thermal stability score [4, 5]?
Answer: 1.87

Question: What about the thermal stability score ([4]; cell cycle stage: mitosis) of the same sequence?
Answer: -0.505

Question: For “MASIMEGPLSKWTNVMKGWQYRWFVLDYNAGLLSYYTSKDKMMRGSRRGCVRLRGAVIGIDDEDDSTFTITVDQKTFHFQARDADEREKWIHALEETILRHTLQLQGLDSGFVPSVQDFDKKLTEADAYLQILIEQLKLFDDKLQNCKEDEQRKKIETLKETTNSMVESIKHCIVLLQIAKDQSNAEKHADGMISTINPVDAIYQPSPLEPVISTMPSQTVLPPEPVQLCKSEQRPSSLPVGPVLATLGHHQTPTPNSTGSGHSPPSSSLTSPSHVNLSPNTVPEFSYSSSEDEFYDADEFHQSGSSPKRLIDSSGSASVLTHSSSGNSLKRPDTTESLNSSLSNGTSDADLFDSHDDRDDDAEAGSVEEHKSVIMHLLSQVRLGMDLTKVVLPTFILERRSLLEMYADFFAHPDLFVSISDQKDPKDRMVQVVKWYLSAFHAGRKGSVAKKPYNPILGEIFQCHWTLPNDTEENTELVSEGPVPWVSKNSVTFVAEQVSHHPPISAFYAECFNKKIQFNAHIWTKSKFLGMSIGVHNIGQGCVSCLDYDEHYILTFPNGYGRSILTVPWVELGGECNINCSKTGYSANIIFHTKPFYGGKKHRITAEIFSPNDKKSFCSIEGEWNGVMYAKYATGENTVFVDTKKLPIIKKKVRKLEDQNEYESRSLWKDVTFNLKIRDIDAATEAKHRLEERQRAEARERKEKEIQWETRLFHEDGECWVYDEPLLKRLGAAKH [OSBPL9]”, which “solubility change mitosis (log2)” value [1] is on record?
Answer: -0.142

Question: What about the “solubility in G1/S (log2)” value [2] of the same sequence?
Answer: -0.0574

Question: And the melting temperature ([3]; cell cycle stage: G1/S)?
Answer: 48.7 °C

Question: And the melting temperature ([3]; cell cycle stage: mitosis)?
Answer: 49.2 °C

Question: And the thermal stability score [4, 5]?
Answer: 0.00752

Question: What about the thermal stability score ([4]; cell cycle stage: mitosis) of the same sequence?
Answer: 0.954

Question: How did the “solubility change mitosis (log2)” value [1] turn out when “MASVGECPAPVPVKDKKLLEVKLGELPSWILMRDFSPSGIFGAFQRGYYRYYNKYINVKKGSISGITMVLACYVLFSYSFSYKHLKHERLRKYH [ATP5J2]” was run?
Answer: -0.104

Question: And the “solubility in G1/S (log2)” value [2]?
Answer: 0.148

Question: And the melting temperature ([3]; cell cycle stage: G1/S)?
Answer: 53 °C

Question: What about the thermal stability score [4, 5] of the same sequence?
Answer: -0.273

Question: And the thermal stability score ([4]; cell cycle stage: mitosis)?
Answer: 1.63

Question: How did the “solubility change mitosis (log2)” value [1] turn out when “MSVLGEYERHCDSINSDFGSESGGCGDSSPGPSASQGPRAGGGAAEQEELHYIPIRVLGRGAFGEATLYRRTEDDSLVVWKEVDLTRLSEKERRDALNEIVILALLQHDNIIAYYNHFMDNTTLLIELEYCNGGNLYDKILRQKDKLFEEEMVVWYLFQIVSAVSCIHKAGILHRDIKTLNIFLTKANLIKLGDYGLAKKLNSEYSMAETLVGTPYYMSPELCQGVKYNFKSDIWAVGCVIFELLTLKRTFDATNPLNLCVKIVQGIRAMEVDSSQYSLELIQMVHSCLDQDPEQRPTADELLDRPLLRKRRREMEEKVTLLNAPTKRPRSSTVTEAPIAVVTSRTSEVYVWGGGKSTPQKLDVIKSGCSARQVCAGNTHFAVVTVEKELYTWVNMQGGTKLHGQLGHGDKASYRQPKHVEKLQGKAIRQVSCGDDFTVCVTDEGQLYAFGSDYYGCMGVDKVAGPEVLEPMQLNFFLSNPVEQVSCGDNHVVVLTRNKEVYSWGCGEYGRLGLDSEEDYYTPQKVDVPKALIIVAVQCGCDGTFLLTQSGKVLACGLNEFNKLGLNQCMSGIINHEAYHEVPYTTSFTLAKQLSFYKIRTIAPGKTHTAAIDERGRLLTFGCNKCGQLGVGNYKKRLGINLLGGPLGGKQVIRVSCGDEFTIAATDDNHIFAWGNGGNGRLAMTPTERPHGSDICTSWPRPIFGSLHHVPDLSCRGWHTILIVEKVLNSKTIRSNSSGLSIGTVFQSSSPGGGGGGGGGEEEDSQQESETPDPSGGFRGTMEADRGMEGLISPTEAMGNSNGASSSCPGWLRKELENAEFIPMPDSPSPLSAAFSESEKDTLPYEELQGLKVASEAPLEHKPQVEASSPRLNPAVTCAGKGTPLTPPACACSSLQVEVERLQGLVLKCLAEQQKLQQENLQIFTQLQKLNKKLEGGQQVGMHSKGTQTAKEEMEMDPKPDLDSDSWCLLGTDSCRPSL [NEK9]” was run?
Answer: -0.102

Question: What about the “solubility in G1/S (log2)” value [2] of the same sequence?
Answer: -0.134

Question: And the melting temperature ([3]; cell cycle stage: G1/S)?
Answer: 51 °C

Question: And the melting temperature ([3]; cell cycle stage: mitosis)?
Answer: 51.2 °C

Question: What about the thermal stability score [4, 5] of the same sequence?
Answer: 0.358

Question: And the thermal stability score ([4]; cell cycle stage: mitosis)?
Answer: -0.633

Question: “MVPSRRTWNLGATPSLRGLWRVGRAPEPEPGMARPAPAPASPAARPFPHTGPGRLRTGRGKDTPVCGDEDSSARSAARPALAQCRALSVDWAGPGSPHGLYLTLQVEHLKEKLISQAQEVSRLRSELGGTDLEKHRDLLMVENERLRQEMRRCEAELQELRTKPAGPCPGCEHSQESAQLRDKLSQLQLEMAESKGMLSELNLEVQQKTDRLAEVELRLKDCLAEKAQEEERLSRRLRDSHETIASLRAQSPPVKYVIKTVEVESSKTKQALSESQARNQHLQEQVAMQRQVLKEMEQQLQSSHQLTARLRAQIAMYESELERAHGQMLEEMQSLEEDKNRAIEEAFARAQVEMKAVHENLAGVRTNLLTLQPALRTLTNDYNGLKRQVRGFPLLLQEALRSVKAEIGQAIEEVNSNNQELLRKYRRELQLRKKCHNELVRLKGNIRVIARVRPVTKEDGEGPEATNAVTFDADDDSIIHLLHKGKPVSFELDKVFSPQASQQDVFQEVQALVTSCIDGFNVCIFAYGQTGAGKTYTMEGTAENPGINQRALQLLFSEVQEKASDWEYTITVSAAEIYNEVLRDLLGKEPQEKLEIRLCPDGSGQLYVPGLTEFQVQSVDDINKVFEFGHTNRTTEFTNLNEHSSRSHALLIVTVRGVDCSTGLRTTGKLNLVDLAGSERVGKSGAEGSRLREAQHINKSLSALGDVIAALRSRQGHVPFRNSKLTYLLQDSLSGDSKTLMVVQVSPVEKNTSETLYSLKFAERVRSVELGPGLRRAELGSWSSQEHLEWEPACQTPQPSARAHSAPSSGTSSRPGSIRRKLQPSGKSRPLPV [KIFC3]” was tested. Which “solubility change mitosis (log2)” value [1] did it give?
Answer: 0.169

Question: What about the “solubility in G1/S (log2)” value [2] of the same sequence?
Answer: -0.0691

Question: What about the melting temperature ([3]; cell cycle stage: G1/S) of the same sequence?
Answer: 49.1 °C

Question: What about the melting temperature ([3]; cell cycle stage: mitosis) of the same sequence?
Answer: 47.3 °C

Question: And the thermal stability score [4, 5]?
Answer: 0.116

Question: And the thermal stability score ([4]; cell cycle stage: mitosis)?
Answer: 0.946

Question: With “MAVEDSTLQVVVRVRPPTPRELDSQRRPVVQVVDERVLVFNPEEPDGGFPGLKWGGTHDGPKKKGKDLTFVFDRVFGEAATQQDVFQHTTHSVLDSFLQGYNCSVFAYGATGAGKTHTMLGREGDPGIMYLTTVELYRRLEARQQEKHFEVLISYQEVYNEQIHDLLEPKGPLAIREDPDKGVVVQGLSFHQPASAEQLLEILTRGNRNRTQHPTDANATSSRSHAIFQIFVKQQDRVPGLTQAVQVAKMSLIDLAGSERASSTHAKGERLREGANINRSLLALINVLNALADAKGRKTHVPYRDSKLTRLLKDSLGGNCRTVMIAAISPSSLTYEDTYNTLKYADRAKEIRLSLKSNVTSLDCHISQYATICQQLQAEVAALRKKLQVYEGGGQPPPQDLPGSPKSGPPPEHQPCTPELPAGPRALQEESLGMEAQVERAMEGNSSDQEQSPEDEDEGPAEEVPTQMPEQNPTHALPESPRLTLQPKPVVGHFSARELDGDRSKQLALKVLCVAQRQYSLLQAANLLTPDMITEFETLQQLVQEEKIEPGAEALRTSGLARGAPLAQELCSESIPVPSPLCPEPPGYTGPVTRTMARRLSGPLHTLGIPPGPNCTPAQGSRWPMEKKRRRPSALEADSPMAPKRGTKRQRQSFLPCLRRGSLPDTQPSQGPSTPKGERASSPCHSPRVCPATVIKSRVPLGPSAMQNCSTPLALPTRDLNATFDLSEEPPSKPSFHECIGWDKIPQELSRLDQPFIPRAPVPLFTMKGPKPTSSLPGTSACKKKRVASSSVSHGRSRIARLPSSTLKRPAGPLVLPELPLSPLCPSNRRNGKDLIRVGRALSAGNGVTKVS [KIF18B]” as the sequence, how does the “solubility change mitosis (log2)” value [1] read?
Answer: 0.37

Question: And the “solubility in G1/S (log2)” value [2]?
Answer: -0.336

Question: What about the melting temperature ([3]; cell cycle stage: mitosis) of the same sequence?
Answer: 49.3 °C

Question: And the thermal stability score [4, 5]?
Answer: 1.28

Question: And the thermal stability score ([4]; cell cycle stage: mitosis)?
Answer: 1.04

Question: For “MATTAAPAGGARNGAGPEWGGFEENIQGGGSAVIDMENMDDTSGSSFEDMGELHQRLREEEVDADAADAAAAEEEDGEFLGMKGFKGQLSRQVADQMWQAGKRQASRAFSLYANIDILRPYFDVEPAQVRSRLLESMIPIKMVNFPQKIAGELYGPLMLVFTLVAILLHGMKTSDTIIREGTLMGTAIGTCFGYWLGVSSFIYFLAYLCNAQITMLQMLALLGYGLFGHCIVLFITYNIHLHALFYLFWLLVGGLSTLRMVAVLVSRTVGPTQRLLLCGTLAALHMLFLLYLHFAYHKVVEGILDTLEGPNIPPIQRVPRDIPAMLPAARLPTTVLNATAKAVAVTLQSH [YIPF3]”, which “solubility change mitosis (log2)” value [1] is on record?
Answer: -0.0133

Question: What about the “solubility in G1/S (log2)” value [2] of the same sequence?
Answer: -0.107

Question: And the melting temperature ([3]; cell cycle stage: G1/S)?
Answer: 55.9 °C

Question: And the melting temperature ([3]; cell cycle stage: mitosis)?
Answer: 55.7 °C

Question: What about the thermal stability score [4, 5] of the same sequence?
Answer: -2.34

Question: And the thermal stability score ([4]; cell cycle stage: mitosis)?
Answer: -3.63

Question: For “MSEHVEPAAPGPGPNGGGGGPAPARGPRTPNLNPNPLINVRDRLFHALFFKMAVTYSRLFPPAFRRLFEFFVLLKALFVLFVLAYIHIVFSRSPINCLEHVRDKWPREGILRVEVRHNSSRAPVFLQFCDSGGRGSFPGLAVEPGSNLDMEDEEEEELTMEMFGNSSIKFELDIEPKVFKPPSSTEALNDSQEFPFPETPTKVWPQDEYIVEYSLEYGFLRLSQATRQRLSIPVMVVTLDPTRDQCFGDRFSRLLLDEFLGYDDILMSSVKGLAENEENKGFLRNVVSGEHYRFVSMWMARTSYLAAFAIMVIFTLSVSMLLRYSHHQIFVFIVDLLQMLEMNMAIAFPAAPLLTVILALVGMEAIMSEFFNDTTTAFYIILIVWLADQYDAICCHTSTSKRHWLRFFYLYHFAFYAYHYRFNGQYSSLALVTSWLFIQHSMIYFFHHYELPAILQQVRIQEMLLQAPPLGPGTPTALPDDMNNNSGAPATAPDSAGQPPALGPVSPGASGSPGPVAAAPSSLVAAAASVAAAAGGDLGWMAETAAIITDASFLSGLSASLLERRPASPLGPAGGLPHAPQDSVPPSDSAASDTTPLGAAVGGPSPASMAPTEAPSEVGS [TMEM259]”, which “solubility change mitosis (log2)” value [1] is on record?
Answer: -0.025

Question: What about the “solubility in G1/S (log2)” value [2] of the same sequence?
Answer: -0.252

Question: What about the melting temperature ([3]; cell cycle stage: G1/S) of the same sequence?
Answer: 54.7 °C

Question: What about the melting temperature ([3]; cell cycle stage: mitosis) of the same sequence?
Answer: 54.2 °C

Question: What about the thermal stability score [4, 5] of the same sequence?
Answer: 0.29

Question: And the thermal stability score ([4]; cell cycle stage: mitosis)?
Answer: 0.308
